Our source for the Kd, koff and kon values is patent US20240036044A1.

The assay has as its target recombinant SARS-CoV-2 Spike protein antigen (Z03501, Genscript) (SARS-CoV-2) (UniProt P0DTC2).

In general, Kd refers to a measure of binding affinity in units of concentration. A word on the koff: it is the rate constant with which the complex falls apart. For orientation: kon means the rate constant with which the complex forms. Regarding “Monoclonal antibody against the SARS-CoV-2 Spike protein (A02038, Genscript)”, the Kd is 2.39 nM, the koff was 0.000603 s⁻¹ and the kon was found to be 252000 M⁻¹ s⁻¹.
